In patent US6610541B2, “Recombinant, active caspases and uses thereof” (Thomas Jefferson University, priority 1998, dated 2003):

Assays:
rev-caspase-6 [1] = molecular target: T1, rev-caspase-6 (Homo sapiens, UniProt P55212); experiment: Inhibition of rev-caspase-6 induced apoptosis in transfected MCF-7 cells; format: cell-based; set-up: T7-tag (15 residues) (N); made in house; conditions: co-transfection with 4-fold expression construct
T1 sequence (P55212 with tags, fused parts or gaps): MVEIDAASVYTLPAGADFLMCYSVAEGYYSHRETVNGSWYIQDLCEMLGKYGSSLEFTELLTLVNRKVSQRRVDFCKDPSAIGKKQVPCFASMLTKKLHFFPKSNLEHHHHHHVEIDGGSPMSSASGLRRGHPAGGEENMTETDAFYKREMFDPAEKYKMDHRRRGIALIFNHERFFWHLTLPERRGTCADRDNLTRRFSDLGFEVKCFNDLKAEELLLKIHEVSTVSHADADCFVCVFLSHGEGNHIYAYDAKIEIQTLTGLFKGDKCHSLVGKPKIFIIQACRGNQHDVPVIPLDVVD
Description: (§1) FIGS. 4A and B are bar diagrams representing the ability of rev-caspase-3 and -6 to induce apoptosis in MCF-7 cells. MCF-7 cells were transiently transfected with either rev-caspase-3 (FIG. 4A), or rev-caspase-6 (FIG. 4B) expression constructs in combination with 4-fold of CrmA, p35 or Bcl-2 expression constructs, or 20 μM zVAD-fmk. Cells transfected with an empty vector or the wild-type caspase-3 or -6 were used as controls.
(§2) To express the rev-caspases in mammalian cells and assay their apoptotic activity, they were amplified with the T7-tag primer and the LS-reverse primers using the pET28a constructs as templates, and subcloned into the mammalian double expression vector pRSC-LacZ (MacFarlane et al., J. Biol. Chem., 272: 25417-25420, 1997; Tsang et al., Bio/Technology, 22: 68, 1997). This vector allows the expression of lacZ under the Rous Sarcoma virus promoter, and the test cDNA under the CMV promoter. To assay for apoptosis, MCF-7 or 293 cells were transfected, using the method commercially available as the Lipofect Amine method (Life Technologies, Inc.), with the pRSC-LacZ constructs in the presence or absence of different apoptosis-inhibitors. 30 h after transfection cells were stained with β-galactosidase and examined for morphological signs of apoptosis. […]

rev-caspase-3 [2] = molecular target: T2, rev-caspase-3 (Homo sapiens, UniProt P42574); experiment: Inhibition of rev-caspase-3 induced apoptosis in transfected MCF-7 cells; format: cell-based; set-up: T7-tag (15 residues) (N); made in house; conditions: co-transfection with 4-fold expression construct
T2 sequence (P42574 with tags, fused parts or gaps): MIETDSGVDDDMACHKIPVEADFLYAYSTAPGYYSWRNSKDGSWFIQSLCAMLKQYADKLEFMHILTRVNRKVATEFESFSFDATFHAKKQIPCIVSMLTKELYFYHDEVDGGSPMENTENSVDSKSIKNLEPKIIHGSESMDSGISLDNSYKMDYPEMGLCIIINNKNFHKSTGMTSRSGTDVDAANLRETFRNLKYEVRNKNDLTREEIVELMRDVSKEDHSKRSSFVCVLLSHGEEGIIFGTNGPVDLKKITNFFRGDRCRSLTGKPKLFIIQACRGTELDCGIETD
Description: as §1, §2

rev-caspase-6 [3] = molecular target: T1, rev-caspase-6; experiment: Autocatalytic processing of in vitro translated rev-caspase-6 (SDS-PAGE/autoradiography); format: biochemical; set-up: T7-tag (15 residues) (N); made in house; host or cells: in vitro translation in rabbit reticulocyte lysate (TNT Kit, Promega)
Description: (§3) FIGS. 2B and C are scanned images of autoradiograms representing SDS-PAGE analysis of the autoprocessing of rev-caspase-3 and -6, respectively in the presence of varying levels of selected caspase inhibitors. Rev-caspase-3 (FIG. 2B) or rev-caspase-6 (FIG. 2C) were in vitro translated in the presence of increasing concentrations of DEVD-CHO […]; (SEQ ID NO:52), or zVAD-fmk (0-5 μM). The translation products were then analyzed as in FIG. 2A. WT, wild-type.
(§4) ^35S-labeled caspases (wild-type and rev-caspases) were obtained by in vitro translation in the presence of ^35S-methionine using a coupled transcription/translation system in rabbit reticulocyte lysate using TNT Kit (Promega) according to the manufacturer's recommendations.
(§5) To test the effect of selected caspase inhibitors on the autocatalytic activity of rev-caspase-3 and 6, the rev-caspases were translated as in Example 3, but in the presence of varying amounts of inhibitors.

[4] = molecular target: T3, uncleavable rev-caspase-3 (Homo sapiens, UniProt P42574, D28A/D9A); experiment: In vitro translation of uncleavable rev-caspase-3: His6-T7-tag processing; format: biochemical; conditions: 400 nM DEVD-CHO during in vitro translation
T3 construct: uncleavable rev-caspase-3 (B); made in house; host or cells: in vitro translation in rabbit reticulocyte lysate (TNT Kit, Promega)
T3 sequence (P42574 with tags, fused parts or gaps D9A/D28A): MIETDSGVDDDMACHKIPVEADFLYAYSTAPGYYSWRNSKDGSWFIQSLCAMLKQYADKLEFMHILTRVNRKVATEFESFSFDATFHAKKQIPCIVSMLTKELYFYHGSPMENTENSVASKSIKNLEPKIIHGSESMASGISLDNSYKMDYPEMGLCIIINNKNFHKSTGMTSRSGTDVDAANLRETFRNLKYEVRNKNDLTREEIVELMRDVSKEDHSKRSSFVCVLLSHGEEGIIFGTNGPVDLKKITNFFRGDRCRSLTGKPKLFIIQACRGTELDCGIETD
From the text: FIG. 5A is a scanned image of an autoradiogram representing SDS-PAGE analysis of the enzymatic activity of uncleavable rev-caspase-3. Uncleavable rev-caspase-3 was in vitro translated in the absence or the presence of increasing concentrations of DEVD-CHO (SEQ ID NO:52),. The translation product contains a cleavable 35 residues-long His6-T7-tag at its N-terminus. The active site mutant rev-caspase-3 (Rev C/A) was used as a control. The p32 cleavage product without the His6-T7-tag is indicated to the right.
^35S-labeled caspases (wild-type and rev-caspases) were obtained by in vitro translation in the presence of ^35S-methionine using a coupled transcription/translation system in rabbit reticulocyte lysate using TNT Kit (Promega) according to the manufacturer's recommendations. […] Because the in vitro translated products are present at very low concentration in the reaction mixture, the observed cleavage must be attributed to an intramolecular processing within the caspase heterotetramer.
However, to follow the activity of this molecule a cleavable 35 residue long His6-T7-tag N-terminal to the IETD (SEQ ID NO:53) site was introduced (see FIG. 1B). […] Nevertheless, the translated molecule was active as evident from its ability to cleave its T7-tag to form the p32 species (FIG. 5). In the presence of 400 nM DEVD-CHO (SEQ ID NO:52), processing of the T7-tag was inhibited and only the full length p34 species can be seen. […] Thus by mimicking the mature caspase structure, it is possible to design a contiguous active caspase molecules.

caspase-6 = molecular target: T4, caspase-6 (Homo sapiens, UniProt P55212); conditions: earlier observations, J. Biol. Chem. 271:27099; cited from earlier work
T4 sequence (P55212 24-293): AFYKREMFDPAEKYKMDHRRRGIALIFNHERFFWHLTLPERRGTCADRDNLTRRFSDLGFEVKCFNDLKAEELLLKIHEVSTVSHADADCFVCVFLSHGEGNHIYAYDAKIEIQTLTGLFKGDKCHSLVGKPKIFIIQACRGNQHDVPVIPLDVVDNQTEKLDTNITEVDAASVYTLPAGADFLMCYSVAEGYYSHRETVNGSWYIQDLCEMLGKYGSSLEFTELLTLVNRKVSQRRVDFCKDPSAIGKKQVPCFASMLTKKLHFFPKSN

rev-caspase-3 [5] = molecular target: T2, rev-caspase-3; experiment: Autocatalytic processing of in vitro translated rev-caspase-3 (SDS-PAGE/autoradiography); format: biochemical; set-up: T7-tag (15 residues) (N); made in house; host or cells: in vitro translation in rabbit reticulocyte lysate (TNT Kit, Promega)
Description: as §3, §4, §5

lamin A = experiment: Cleavage of in vitro translated lamin A C-terminus by bacterially expressed caspases; format: biochemical; conditions: BL-21 bacterial extracts, 2 h at 37° C.
Description: FIGS. 3A and B are scanned images representing the SDS-PAGE analysis of the ability of rev-caspase-3 (imaged by western blot) and -6 (imaged by autoradiogram) to cleave PARP and lamin, respectively. In FIG. 3A purified human PARP was incubated with buffer (lane 1) or BL-21 bacterial extracts prepared from bacteria transformed with caspase-3 (lane 2), rev-caspase-3 (lane 3), caspase-6 (lane 4), rev-caspase-6 (lane 5) constructs or empty pET28a vector (lane 6) for 2 h at 37° C. The reaction products were then analyzed by SDS-PAGE and Western blotting with anti-human PARP antibody. In FIG. 3B a cDNA encoding the C-terminus of lamin A (amino acids) which contain the caspase-6 cleavage site (VEIDA); (SEQ ID NO:116), was amplified by PCR and in vitro translated in the presence of ^35S-methionine. The labeled product was incubated with buffer (lane 1) or the BL-21 bacterial extracts listed above for 2 h at 37° C., and then analyzed by SDS-PAGE and autoradiography. The cleavage products are indicated to the right.
At limited caspase concentrations, poly(ADP) ribose polymerase (PARP) is specifically cleaved by caspase-3 and 7 but not other caspases. Similarly, lamin is specifically cleaved by caspase-6 but not other caspases. […]

MCF-7 cells = experiment: Induction of apoptosis in transfected MCF-7 cells (round blue apoptotic cells); format: cell-based, human; conditions: 30 h after transfection
Description: as §1
To express the rev-caspases in mammalian cells and assay their apoptotic activity, they were amplified with the T7-tag primer and the LS-reverse primers using the pET28a constructs as templates, and subcloned into the mammalian double expression vector pRSC-LacZ (MacFarlane et al., J. Biol. Chem., 272: 25417-25420, 1997; Tsang et al., Bio/Technology, 22: 68, 1997). This vector allows the expression of lacZ under the Rous Sarcoma virus promoter, and the test cDNA under the CMV promoter. To assay for apoptosis, MCF-7 or 293 cells were transfected, using the method commercially available as the Lipofect Amine method (Life Technologies, Inc.), with the pRSC-LacZ constructs in the presence or absence of different apoptosis-inhibitors. 30 h after transfection cells were stained with β-galactosidase and examined for morphological signs of apoptosis. The percentage of round blue apoptotic cells (mean±SD) were represented as a function of total blue cells under each condition (n≧3).
To determine the apoptotic activity of rev-caspase-3 and 6 in vivo, the rev-caspases were expressed in human MCF-7 cells, transfected as explained above in Example 2.

[6] = at the concentration used (zVAD-fmk 0-5 μM), p35 data not shown

Molecule: Bc1-2: overexpressed protein that protects against different forms of apoptosis [reference compound]
- effect of overexpression on apoptotic activity of rev-caspase-6 (rev-caspase-6 [1]): did not significantly reduce
- effect of overexpression on apoptotic activity of rev-caspase-3 (rev-caspase-3 [2]): did not significantly reduce

Molecule: DEVD-CHO [reference compound]
- effect on the autocatalytic activity of rev-caspase-6 (rev-caspase-6 [3]; same concentrations (40-400 nM), inhibitor present during in vitro translation): little effect
- processing of the T7-tag of uncleavable rev-caspase-3 [4]: inhibited
- inhibition of caspase-6 (caspase-6): poorly inhibited
- inhibition of the autocatalytic activity of rev-caspase-3 (rev-caspase-3 [5]; at 40-400 nM concentration, inhibitor present during in vitro translation): 50-90%

B1: rev-caspase-6: contiguous caspase-6 with small subunit fused N-terminal to large subunit, VEID cleavage site between them (SEQ ID NO:36) (protein)
chain: MVEIDAASVYTLPAGADFLMCYSVAEGYYSHRETVNGSWYIQDLCEMLGKYGSSLEFTELLTLVNRKVSQRRVDFCKDPSAIGKKQVPCFASMLTKKLHFFPKSNLEHHHHHHVEIDGGSPMSSASGLRRGHPAGGEENMTETDAFYKREMFDPAEKYKMDHRRRGIALIFNHERFFWHLTLPERRGTCADRDNLTRRFSDLGFEVKCFNDLKAEELLLKIHEVSTVSHADADCFVCVFLSHGEGNHIYAYDAKIEIQTLTGLFKGDKCHSLVGKPKIFIIQACRGNQHDVPVIPLDVVD
modifications: OTHER INFORMATION: Rev-Caspase-6 contructed fro m human caspase-6
- autocatalytic processing in the in vitro translation reaction (rev-caspase-6 constructs) (rev-caspase-6 [3]; rabbit reticulocyte lysate, 35S-methionine): able to undergo autocatalytic processing
- cleavage of lamin (lamin A): efficiently cleaved lamin
- apoptosis in transfected cells (MCF-7 cells): ~90%

B2: baculovirus p35: baculovirus p35, which inhibits the activity of most caspases (protein)
chain: MCVIFPVEIDVSQTIIRDCQVDKQTRELVYINKIMNTQLTKPVLMMFNISGPIRSVTRKNNNLRDRIKSKVDEQFDQLERDYSDQMDGFHDSIKYFKDEHYSVSCQNGSVLKSKFAKILKSHDYTDKKSIEAYEKYCLPKLVDERNDYYVAVCVLKPGFENGSNQVLSFEYNPIGNKVIVPFAHEINDTGLYEYDVVAYVDSVQFDGEQFEEFVQSLILPSSFKNSEKVLYYNEASKNKSMIYKALEFTTESSWGKSEKYNWKIFCNGFIYDKKSKVLYVKLHNVTSALNKNVILNTIK
- inhibitory effect on rev-caspase-6 autocatalytic activity compared with rev-caspase-3 (rev-caspase-6 [3]; [6]): nearly an equal inhibitory effect
- effect of overexpression on apoptotic activity of rev-caspase-6 (rev-caspase-6 [1]): partially protected
- inhibitory effect on rev-caspase-3 autocatalytic activity compared with rev-caspase-6 (rev-caspase-3 [5]; [6]): nearly an equal inhibitory effect
- effect of overexpression on apoptotic activity of rev-caspase-3 (rev-caspase-3 [2]): partially protected
